The target in test [1] is ED-tagged human SIRPα V1 receptor on Jurkat signaling reporter cells (human) (UniProt P78324). Nature of the test: cell-based or functional assay.
Test [2] addresses ED-tagged human SIRPα V2 receptor on Jurkat signaling reporter cells (human) (UniProt P78324). Briefly: cell-based or functional assay.

Anti-SIRPα antibody KWAR23, sequence (VH): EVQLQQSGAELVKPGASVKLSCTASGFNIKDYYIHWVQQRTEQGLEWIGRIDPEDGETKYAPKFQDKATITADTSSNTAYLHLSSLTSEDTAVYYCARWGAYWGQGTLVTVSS
Anti-SIRPα antibody KWAR23, sequence (VL): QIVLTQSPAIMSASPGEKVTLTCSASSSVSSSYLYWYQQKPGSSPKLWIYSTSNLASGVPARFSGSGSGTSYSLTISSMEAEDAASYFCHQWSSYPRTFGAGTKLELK
ED-tagged human SIRPα V2 receptor on Jurkat signaling reporter cells (human), sequence (P78324 31-504): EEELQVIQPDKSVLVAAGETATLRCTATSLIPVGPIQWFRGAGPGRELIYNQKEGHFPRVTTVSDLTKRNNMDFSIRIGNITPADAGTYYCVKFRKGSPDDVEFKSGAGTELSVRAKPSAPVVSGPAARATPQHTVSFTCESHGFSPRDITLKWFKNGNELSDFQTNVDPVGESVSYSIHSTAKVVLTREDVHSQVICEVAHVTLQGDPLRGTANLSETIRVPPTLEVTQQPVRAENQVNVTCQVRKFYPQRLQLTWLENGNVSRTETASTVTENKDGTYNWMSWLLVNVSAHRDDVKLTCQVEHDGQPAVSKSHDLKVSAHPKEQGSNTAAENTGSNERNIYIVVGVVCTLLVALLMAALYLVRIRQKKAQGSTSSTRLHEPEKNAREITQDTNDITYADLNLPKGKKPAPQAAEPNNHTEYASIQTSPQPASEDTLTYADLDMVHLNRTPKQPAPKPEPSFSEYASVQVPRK
ED-tagged human SIRPα V1 receptor on Jurkat signaling reporter cells (human), sequence (P78324 31-504): as above

As to Anti-SIRPα antibody KWAR23, the Blockade of Cellular CD47-Mediated SIRPα Signaling; IC50 in test [1] and in test [2] was 0.04 nM throughout.

The values are drawn from US20230012273A1.
